Experimental data: PMC8609903, “Novel Lung Targeting Cell Penetrating Peptides as Vectors for Delivery of Therapeutics” (Research Square, 2021)

How the values were obtained:
[1] = tested on: SARS-CoV-2 (strain USA_WA1/2020); assay type: cell-based; conditions: concentrations of 2, 0.2, and 0.02 μM, human bronchial epithelial cells
[2] = tested on: Rat cardiomyoblast H9C2 cells; conditions: 10μM peptide, 30 minutes, 37°C, N-terminal Cy5.5, C-terminal amide, FACs, biological triplicates, p<0.001
[3] = tested on: human bronchial epithelial cells
[4] = tested on: wild-type CD1 mice; assay: Biodistribution time course of Cy5.5 labeled R11A, ex-vivo IVIS imaging; conditions: 5mg/Kg Cy5.5 labeled R11A intravenous, 15-360 minutes, n=3
Protocol: Mice were euthanized at the end of the circulation period, perfused and fixed as before, and multiple organs harvested and ex-vivo IVIS imaging performed immediately.
Wild-type, 6-week old, female CD1 mice were purchased from Charles Rivers. After at least 48 hours of acclimatization after arriving in the animal colony, mice were weighed and anesthetized with an intraperitoneal injection of a 1:1 cocktail of Ketamine:Xylazine at 1–2μL/gm body weight. […] At the end of circulation time, mice were euthanized using inhalational CO2 as per IACUC-approved protocol, chest cavity opened, right atrium nicked and 3–5ml of 4% formalin injected through the left ventricular apex to perfusion fix the animals. Various organs were harvested, rinsed once in PBS and placed on a petri dish to be imaged using IVIS (Perkin- Elmer – S5 instrument). All mice were imaged using identical instrument settings (stage position, exposure time, binning, F-stop etc.). […] All time-points were tested in at least triplicate (n=3).

Compound	reduction of SARS-CoV-2 titers compared to virus controls [1]	Cy5.5 intensities, fold higher [2] [fold]	uptake at 4°C [3]	fluorescence in kidneys [4]	fluorescence in liver [4]
CCC(CC)COC(=O)[C@H](C)N[P@](=O)(OC[C@H]1O[C@@](C#N)(c2ccc3c(N)ncnn23)[C@H](O)[C@@H]1O)Oc1ccccc1 [Remdesivir]	statistically significant				
APWHLSAQYSRT ({Cy5.5}-APWHLSAQYSRT-NH2) [S7A]		~3	very little uptake		
APWHLSSQYSAT ({Cy5.5}-APWHLSSQYSAT-NH2) [R11A]			very little uptake	little fluorescence	decreased over time
